Target: T1, glutamate dehydrogenase (endogenous, 293T cells) (human, UniProt P00367 54-558, ADP-ribosylated (32P-labelled) in the mitochondrial labelling experiments; site not stated)
T1 construct: Endogenous protein in 293T lysate or mitochondria; also called GDH
Assay: anti-FLAG immunoprecipitation from 32P-NAD labelled mitochondria of 293T cells overexpressing Sirt4-FLAG, autoradiography
Procedure: FIG. 5. Glutamate dehydrogenase is ADP-ribosylated in vivo and interacts with Sirt4. FIG. 5A. Mitochondria (50 mg) from 293T cells were incubated with [³²P]-NAD at 37° C. for 30 min. Proteins were separated by SDS-PAGE, transferred to a nitrocellulose membrane, and radioactivity was measured by exposure to film. FIG. 5B. Mitochondrial proteins were ADP-ribosylated as described for FIG. 5A, and lysis was performed in NP-40 buffer containing 10 mM DTT and 0.5 mM EDTA. Clarified lysate was incubated with protein A resin that had been pre-incubated with antibodies against hSirt4, ANT or glutamate dehydrogenase (GDH). FIG. 5C. 293T cells were transiently transfected with 10 μg of pCMV (V) or phSirt4-FLAG (4). Cells were harvested and lysed in NP-40 buffer containing protease inhibitors and 1 mM DTT. […] An endogenous interaction between Sirt4 and glutamate dehydrogenase was determined in MIN6 cells. […] Proteins were separated by SDS-PAGE, transferred to nitrocellulose membrane, and the radioactivity was measured by exposure to x-ray film.
Mitochondria from 293T control or Sirt4-FLAG overexpressing cells were incubated with [³²P]-NAD, and the ADP-ribosylation state of glutamate dehydrogenase was measured by immunoprecipitation and subsequent autoradiography. […] Moreover, a small amount of labeled glutamate dehydrogenase could be detected in a complex with Sirt4 (FIG. 5E).

T1 sequence (P00367 54-558): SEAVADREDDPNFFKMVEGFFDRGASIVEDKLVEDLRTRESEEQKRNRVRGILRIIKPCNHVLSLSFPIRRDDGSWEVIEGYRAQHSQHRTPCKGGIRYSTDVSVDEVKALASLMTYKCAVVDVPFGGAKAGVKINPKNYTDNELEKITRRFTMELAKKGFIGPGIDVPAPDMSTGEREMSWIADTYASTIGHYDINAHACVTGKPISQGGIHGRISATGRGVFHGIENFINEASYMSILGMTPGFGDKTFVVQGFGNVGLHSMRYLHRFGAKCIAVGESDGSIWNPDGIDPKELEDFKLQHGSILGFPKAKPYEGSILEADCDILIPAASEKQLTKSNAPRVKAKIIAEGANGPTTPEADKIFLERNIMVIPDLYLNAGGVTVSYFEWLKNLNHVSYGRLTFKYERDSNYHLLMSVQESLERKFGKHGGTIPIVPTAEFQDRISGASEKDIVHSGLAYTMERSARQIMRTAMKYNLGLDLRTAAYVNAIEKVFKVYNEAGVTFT

B1: human Sirt4 with a C-terminal FLAG (enzyme)
chain: IGLFVPASPPLDPEKVKELQRFITLSKRLLVMTGAGISTESGIPDYRSEKVGLYARTDRRPIQHGDFVRSAPIRQRYWARNFVGWPQFSSHQPNPAHWALSTWEKLGKLYWLVTQNVDALHTKAGSRRLTELHGCMDRVLCLDCGEQTPRGVLQERFQVLNPTWSAEAHGLAPDGDVFLSEEQVRSFQVPTCVQCGGHLKPDVVFFGDTVNPDKVDFVHKRVKEADSLLVVGSSLQVYSGYRFILTAWEKKLPIAILNIGPTRSDDLACLKLNSRCGELLPLIDPC
notes: Overexpressed in 293T cells from phSirt4FLAG; Used in cell lysate or immunoprecipitated and eluted with FLAG peptide; also called hSirt4-FLAG; Sirt4-FLAG; not shown: C-terminal FLAG tag from vector pCMV-FLAG-4A
Does B1 bind?
Result: binds

From patent US20070099830A1 (MIT, published 2007)
